Consider 3 molecules from US20030129189A1, “Tumor necrosis factor-gamma” (priority 1994, published 2003).

Where two headings read alike, the source gives them in different places.

For one experiment, the system named is DR3. Nature of the experiment: FACS binding of FLAG-tagged soluble TL1β to cells transfected with DR3. On the set-up: species or system human. The procedure: A FLAG-tagged soluble form of the TL1 (aa 72-251) protein was tested for binding of cells transiently transfected with different members of the TNFR family, including TNFR2, LTβR, 4-1BB, CD27, CD30, BCMA, DR3, DR4, DR5, DR6, DcR1, DcR2, RANK, HveA, and AITR. […] The small shift (˜30%) seen when full length DR3 was used is likely due to the presence of low DR3-expressing cells while DR3 overexpressed cells undergone apoptosis.
(§1) One million cells, in 0.1 ml of FACS buffer (PBS, 0.1% BSA, 0.1% NaN3), were incubated with 0.1-1 microgram of protein or antibody at RT for 15 min. The cells were washed with 3 ml of FACS buffer, reacted with biotinylated primary antibody, and stained with PE-conjugated secondary antibody at RT for 15 min. Cells were then washed again, resuspended in 0.5 microgram/ml of propidium iodide, and live cells were gated and analyzed on a FACScan using the CellQuest software (BD Biosciences).

A further experiment has as its system primary T cells. In words: Caspase assay in PHA-activated primary T cells. The class given is cell-based, human. To be noted: presence or absence of cycloheximide. The procedure: Overexpression of DR3 in cell lines induces capase activation (Chinnaiyan et al., Science 274:990-2 (1996); Kitson et al., Nature 384:372-5 (1996); Marsters et al., Curr. Biol. 6:1669-76 (1996); Bodmer et al., Immunity 6:79-88 (1997)). We tested whether TL1β could induce caspase activation in primary T cells.
TF-1 cells or PHA-activated primary T cells were seeded at 75,000 cells/well in a black 96-well plate with clear bottom (Becton Dickinson) in RPMI Medium containing 1% fetal bovine serum (Biowhittaker). […] Caspase activity was measured directly in the wells by adding equal volume of a lysis buffer containing 25 μM DEVD-rodamine 110 (Roche Molecular Biochemicals), and allowed the reaction to proceed at 37C for 1 to 2 hours. Release of rodarmine 110 was monitored with a Wallac Victor2 fluorescence plate reader with excitation filter 485 nm and emission filter 535 nm.

Experiment [1] concerns the target T1, TNF-gamma-beta (Homo sapiens, UniProt O95150).
T1 construct: made in house; host or cells: 293T cells, transient transfection
T1 sequence (O95150 72-251 limits assumed): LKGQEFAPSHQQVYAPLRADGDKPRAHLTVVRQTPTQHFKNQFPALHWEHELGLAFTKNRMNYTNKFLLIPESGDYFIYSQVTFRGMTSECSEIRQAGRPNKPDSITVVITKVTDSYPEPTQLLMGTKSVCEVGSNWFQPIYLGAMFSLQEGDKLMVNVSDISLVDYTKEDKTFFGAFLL
In words: Coimmunoprecipitation of TNF-gamma-beta by TNFR-Fc proteins. The class given is binding. An excerpt:
The beads were then precipitated and washed extensively with PBST buffer (PBS, 0.5% Triton X-100) before boiled in SDS-sample buffer. Proteins were resolved on 4-20% Tris-Glycine gels (NOVEX), transferred to nitrocellulose membranes, and blotted with anti-Flag M2 monoclonal antibody (1 microgram/ml, Sigma) andhorseradish peroxidase (HRP)-conjugated goat anti-mouse IgG antibody (0.5 microgram/ml).

In experiment [2] the target is T2, TNF-gamma-beta (Homo sapiens, UniProt O95150).
T2 construct: made in house; host or cells: E. coli (untagged) or 293T (FLAG-tagged)
T2 sequence (O95150 72-251): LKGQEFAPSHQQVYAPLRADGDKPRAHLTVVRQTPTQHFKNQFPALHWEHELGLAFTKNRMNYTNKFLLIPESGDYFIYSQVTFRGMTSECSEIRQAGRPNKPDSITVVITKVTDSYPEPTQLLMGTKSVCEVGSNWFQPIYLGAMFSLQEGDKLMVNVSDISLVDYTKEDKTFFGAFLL
In words: Inhibition of TNF-gamma-beta-mediated IFNγ secretion from T cells. The class given is cell-based. The note with it: costimulated T cells. On the procedure:
The extent of the increase in IL-2 receptor expression is consistent with the moderate increase in IL-2 responsiveness compared with IL-2 itself.
1×10^5 cells/ml of purified T cells were seeded in a 24-well tissue culture plate that had been coated with anti-CD3 (0.3 microgram/ml) and anti-CD28 (5.0 microgram/ml) overnight at 4° C. […] ELISA assay for IFNγ, GM-CSF, IL-2 IL-4, IL-10 and TNFα were performed using kits purchased from R & D Systems. Recombinant human IL-2 (5 ng/ml) was used as a positive control. All samples were tested in duplicate and results were expressed as an average of duplicate samples plus or minus error.

For experiment [3], the target named is T1, TNF-gamma-beta. Nature of the experiment: Neutralization of TNF-gamma-beta induced SEAP production in TF-1/SRE reporter cells. The class given is cell-based. To be noted: TNF-gamma-beta at 200 ng/mL, TF1/SRE reporter cells. On the procedure:
(§2) Briefly, a poly-D-lysine coated 96-well plate is seeded with TF-1/SRE-SEAP cells (in RPMI+0.2% Fetal bovine serum) at 75,000 cells per well. […] Again cells were incubated overnight. After overnight incubation, conditioned media were collected and SEAP activity was determined using the SEAP Reporter Gene Assay available from Roche Molecular Biochemicals (Indianapolis, Ind.) according to the manufacturer's directions. Briefly, Conditioned media were diluted 1:4 into dilution buffer. Samples were incubated at 65C for 30 minutes to eliminate contaminating AP activity usually present in culture medium. 25 microliters of the heat-inactivated samples were mixed with equal volume of inactivation buffer (containing a mixture of differential alkaline phosphatase inhibitors). Following a 5-minute incubation at room temperature, 50 uL of alkaline phosphatase substrate (CSPD) was added to each well. Chemiluminescence signal was read 10-15 minutes later using a luminometer.
These solutions were then incubated for 1 hour at room temperature. […] After the overnight incubation, the SEAP assay was performed as described above.
(§3) The premyeloid cell line TF-1 was stably transfected with SRE/SEAP (Signal Response Element/Secreted Alkaline Phosphatase) reporter plasmid that responds to the SRE signal transduction pathway.

Experiment [4] concerns the target T3, TNF-gamma-beta (Homo sapiens, UniProt O95150).
T3 construct: expressed in transfected cells
T3 sequence (O95150 1-251): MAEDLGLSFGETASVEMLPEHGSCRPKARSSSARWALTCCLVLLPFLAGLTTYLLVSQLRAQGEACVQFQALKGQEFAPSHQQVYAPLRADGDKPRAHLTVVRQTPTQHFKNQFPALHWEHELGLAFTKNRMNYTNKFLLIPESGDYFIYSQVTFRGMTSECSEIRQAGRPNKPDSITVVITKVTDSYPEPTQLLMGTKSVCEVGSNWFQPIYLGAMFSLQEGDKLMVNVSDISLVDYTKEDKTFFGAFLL
Nature of the experiment: FACS binding of receptor-Fc proteins to cells expressing full length TNF-gamma-beta. On the procedure:
These cells were used to screen the Fc-fusion form of the extracellular domain of TNFR family members, including TNFR1, Fas, HveA, DR3, DR4, DR5, DR6, DcR1, DcR2, TR6, OPG, RANK, AITR, TAC1, CD40, and OX40. […] TR6 has been previously described as a decoy receptor (Pitti et al., Nature 396:699-703 (1998); Yu et al., J. Biol. Chem. 274:13733-6 (1999)) capable of competing with Fas and HveA for binding of FasL and LIGHT, respectively.
Cells resistant to 0.5 mg/ml Genticin (Invitrogen) were selected and expanded. Expression of TNF-gamma-beta mRNA was confirmed by quantitative RT-PCR analysis and surface expression of TNF-gamma-beta protein confirmed by FACS analyses using TNF-gamma-beta monoclonal antibodies.
as §1
For orientation: A flow cytometer gives signals particle by particle.

A further experiment relates to TF-1/SRE-SEAP cells. In words: SEAP assay: TNF-gamma-beta induced SEAP in TF-1/SRE-SEAP reporter cells. The class given is cell-based. The note with it: without TNF-gamma-beta. The procedure:
as §2, §3

Experiment [5] deals with T2, TNF-gamma-beta. Nature of the experiment: Inhibition of TNF-gamma-beta induced caspase activation in TF-1 cells. The class given is cell-based. To be noted: presence of cycloheximide. The procedure: Briefly, cells growing in microtiter plates are induced to undergo apoptosis, causing an activation of caspase activities. Equal volume of a caspase substrate (Asp-Glu-Val-Asp-Rhodamine 110, or DEVD-R110) solution is then added and incubated for at least 1 hour. During this incubation, cells are being lysed and free R110 is released from the substrate. The level of free R110 is determined fluorimetrically, using a fluorescence reader with excitation filter 470-500 nm and emission filter 500-560 nm.
A black 96-well plate with a clear bottom is seeded with 75,000 TF-1 cells in RPMI containing 1% fetal bovine serum and micrograms/milliliter cyclohexamide. […] Following the manufacturer's directions, an equal volume of 1×substrate solution containing 50 micromolar DEVD-R110 diluted in incubation buffer is added to each well. The 96-well plates are then incubated for 2 hours after which the plate is read in a fluorescence reader with an excitation filter at 485 nm and an emission filter at 535 nm.
These solutions were then incubated for 1 hour at room temperature.
The reagents were incubated for 1 hour at RT to allow the formation of protein-TNF-gamma-beta complexes and then added to the cells. Caspase activity was measured as described above.

The target of experiment [6] is T2, TNF-gamma-beta. In words: Inhibition of TNF-gamma-beta activation of NF-κB in 293T cells. The class given is cell-based. On the procedure:
To avoid spontaneous apoptosis or NF-κB activation accompanied with DR3 overexpression, a limited amount of DR3-expression DNA that by itself minimally activated these pathways was used.
293T cells were transiently transfected using LipofectAMINE and PLUS reagents according to the manufacturer's instruction (Invitrogen). For reporter assays, 293T cells, at 5×10^5 cells/well, were seeded in 6-well plates and transfected with a total of 1 microgram of DNA. pC4 DNA was used as filler DNA. Conditioned supernatant was collected 24 hr post-transfection and assayed for secreted alkaline phosphatase (SEAP) activity using the Phospha-Light™ chemiluminescent reporter gene assay system (Tropix). pCMV-lacZ was used as internal control for transfection efficiency normalization.

In the case of “FLAG-TL1β: FLAG-tagged soluble form of the TL1 (aa 72-251) protein”, the “binding to cells expressing full length or DD-deleted DR3” value with DR3 is on record as “consisitently detected”.

B1: FasL: Fas ligand, positive control for caspase activation in T cells (protein, UniProt P48023 130-281, looked up)
Tumor necrosis factor ligand …: QIGHPSPPPEKKELRKVAHLTGKSNSRSMPLEWEDTYGIVLLSGVKYKKGGLVINETGLYFVYSKVYFRGQSCNNLPLSHKVYMRNSKYPQDLVMMEGKMMSYCTTGQMWARSSYLGAVFNLTSADHLYVNVSELSLVNFEESQTFFGLYKL
As to B1, the “caspase activity in PHA-activated T cells” value in the experiment on primary T cells is on record as “readily measured”.

B2: TR6.Fc: full length TR6 (aa 1-300) fused to the Fc domain of human IgG1 (protein)
chain: VAETPTYPWRDAETGERLVCAQCPPGTFVQRPCRRDSPTTCGPCPPRHYTQFWNYLERCRYCNVLCGEREEEARACHATHNRACRCRTGFFAHAGFCLEHASCPPGAGVIAPGTPSQNTQCQPCPPGTFSASSSSSEQCQPHRNCTALGLALNVPGSSSHDTLCTSCTGFPLSTRVPGAEECERAVIDFVAFQDISIKRLQRLLQALEAPEGWGPTPRAGRAALQLKLRRRLTELLGAQDGALLVRLLQALRVARMPGLERSVRERFLPVH
modifications: left off: a dimerising Fc or GST
notes: full length TR6 (aa 1-300) fused to the Fc domain of human IgG1
In the case of B2, the “immunoprecipitation of TNF-gamma-beta” value in the experiment with TNF-gamma-beta [1] was “can be used to immunoprecipitate TNF-gamma-beta”; in the experiment with TNF-gamma-beta [1] (listed as TR6-Fc), “specifically interacted with FLAG-TNF-gamma-beta”. Moreover, the “inhibition of TNF-gamma-beta-mediated IFNγ secretion” value with TNF-gamma-beta [2] was “able to inhibit”. Also, in the experiment with TNF-gamma-beta [3], the “neutralization of TNF-gamma-beta SEAP activity by receptor-Fc” value is on record as “can be neutralized by TR6.fc fusion protein in a dose dependent manner”. Moreover, the entries for the “binding to cells expressing TNF-gamma-beta (FACS)” value with TNF-gamma-beta [4] and in the experiment with TNF-gamma-beta [4] (listed as TR6-Fc) were “specifically bind cells transfected with TNF-gamma-beta” and “bound efficiently”, respectively. The “SEAP activity of the Fc protein by itself” value in the experiment with TF-1/SRE-SEAP cells is “showed no activity”. Besides, in the experiment with TNF-gamma-beta [5], the “inhibition of TNF-gamma-beta induced caspase activation” value is “inhibited by either DR3-Fc or TR6-Fc protein”. The entries for the “inhibition of TNF-gamma-beta activation of NF-κB” value with TNF-gamma-beta [6] and with TNF-gamma-beta [6] (listed as TR6-Fc) were “able to inhibit” and “specifically inhibited”, respectively.
